± gives the uncertainty stated by the source.
Test: protein stability index of a GFP-peptide fusion (yeast GPS) (PSI 1-4); higher = more stable; sorted into four equal gates, so the index is relative within each strain
Settings: doa10∆
Procedure, shortened: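 Sequencing reads from sorted gates were used to score each peptide. The library consisted of tiled 17-residue yeast protein peptides fused downstream of GFP on a Cherry-expressing plasmid, pooled and carried in yeast. Mid-log cultures in leucine-free medium were split into four equal gates by GFP/Cherry ratio, and each gate's plasmids were PCR-amplified and Illumina-sequenced. The protein stability index adds up, over all gates, the read frequency multiplied by the gate number.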

| Sequence | protein stability index |
| --- | --- |
| YKFLDQNSDASTLEPTL [YIL149C/MLP2] | 2.24 ± 0.11 |
| YKKIPLLGPTLEDHTPP [QCR10] | 2.34 ± 0.05 |
| YKLTNDEEGIFSRFVDQ [YCG1] | 2.94 ± 0.12 |
| YLAKELNLTGPKVPEDI [RPN1] | 3.26 ± 0.23 |
| YLGEGPRMVRDVFRLAR [RPT3] | 2.79 ± 0.14 |
| YLGTKVELPYGAHGYSG [PRE1] | 2.77 ± 0.18 |
| YLHNVELGEKKNEKLKF [ISW2] | 2.84 ± 0.083 |
| YLIKLLGFEVKDQALIG [SIR2] | 1.92 ± 0.061 |
| YLREDQMIDTSILPTRD [NUT1] | 3.21 ± 0.069 |
| YMEKGTQLDDLQHELMI [YML103C/NUP188] | 2.62 ± 0.058 |
| YNLLVKISLHKREYLEV [RPN5] | 1.5 ± 0.1 |
| YPDFRHYGLAVDIYTHF [DIS3] | 2.17 ± 0.041 |
| YPDLCSIYDKWTDPNLK [RPN1] | 2.69 ± 0.091 |
| YPDLQPFVLAENMWPFS [CDC53] | 1.68 ± 0.05 |
| YPESISNELIEHFSHFG [YDL088C/ASM4] | 2.76 ± 0.067 |
| YPIYELLMSCPRLSHLS [GRR1] | 1.42 ± 0.056 |
| YPNEVLKFNHGNYSHLM [REC8] | 2.7 ± 0.13 |
| YQEDIFVSESPSFVKSG [ISW2] | 2.85 ± 0.098 |
| YQELAYRATSLDPSLRA [YML031W/NDC1] | 2.8 ± 0.049 |
| YQGVYSMGSILLSFVLG [YML031W/NDC1] | 2.29 ± 0.074 |
| YQKEYETAERNIIQAKR [RPL7A] | 2.81 ± 0.25 |
| YQMHIKTSKDIAVLRSK [FAS1] | 2.25 ± 0.051 |
| YQRPMQVQGQQQAQSFV [SSN3] | 2.42 ± 0.044 |

| Sequence | protein stability index |
| --- | --- |
| YRCFAQLELRQLNASIS [RRI2] | 3.06 ± 0.2 |
| YRLDIIESALKSKLDQD [RPN2] | 1.66 ± 0.093 |
| YRNFMVNSYRLNPNEYF [SWI3] | 1.69 ± 0.12 |
| YRRALQSSESFDDSDIT [YML103C/NUP188] | 1.89 ± 0.056 |
| YRVTLESILQMNQGEGE [RPC34] | 2.94 ± 0.19 |
| YSALNSTYLPKLISAFD [RRP42] | 2.69 ± 0.068 |
| YSKDAKEIYYTPDPSEL [FAS2] | 2.44 ± 0.026 |
| YSKIKHLGLDDPQDVFN [SIR2] | 2.77 ± 0.18 |
| YSSYIYKVLKQTHPDTG [HTB1] | 2.58 ± 0.065 |
| YTANTSAQSIASAKSVR [YAR002W/NUP60] | 2.64 ± 0.088 |
| YTKETYQSRGIDAMKAV [RPN6] | 2.59 ± 0.069 |
| YTLTEEGVEYLREYLNL [RPS10A] | 3.28 ± 0.11 |
| YTREFVEAIRRSNQYQR [NUT2] | 2.26 ± 0.07 |
| YVESDEDDTQIVTGNLV [IRR1] | 3.47 ± 0.15 |
| YVISLSYTDAQDKSKKI [YMR129W/POM152] | 2.67 ± 0.12 |
| YVKEKLEAVNSMIEKGG [RPN7] | 2.93 ± 0.14 |
| YVNDVAIYNNPTRIRTK [RRI2] | 1.81 ± 0.052 |
| YVYRASKEVRGSKIRVM [RPL33A] | 2.75 ± 0.063 |
| YWQYKAGIPIGLKRSQL [SWP82] | 1.7 ± 0.13 |
| YYAKKRAFTKKVSSASA [RPL16B] | 1.82 ± 0.075 |
| YYDRKEELKNMFLYILK [RRI2] | 2.16 ± 0.22 |
| YYNEEGIHILLYSGLII [RPC82] | 2.01 ± 0.1 |
| YYNPQAGTKITICIELK [RGR1] | 2.16 ± 0.13 |

Same assay, conditions: pdr5∆

| Sequence | protein stability index |
| --- | --- |
| YKDSLALINDLLREFKK [RPN6] | 2.42 ± 0.22 |
| YKFLDQNSDASTLEPTL [YIL149C/MLP2] | 1.65 ± 0.092 |
| YKKIPLLGPTLEDHTPP [QCR10] | 2.59 ± 0.057 |
| YKLTNDEEGIFSRFVDQ [YCG1] | 2.83 ± 0.13 |
| YLAKELNLTGPKVPEDI [RPN1] | 3.24 ± 0.27 |
| YLGEGPRMVRDVFRLAR [RPT3] | 2.96 ± 0.053 |
| YLGTKVELPYGAHGYSG [PRE1] | 2.38 ± 0.11 |
| YLHNVELGEKKNEKLKF [ISW2] | 2.68 ± 0.094 |
| YLIKLLGFEVKDQALIG [SIR2] | 2.08 ± 0.06 |
| YLREDQMIDTSILPTRD [NUT1] | 2.98 ± 0.068 |
| YMEKGTQLDDLQHELMI [YML103C/NUP188] | 2.31 ± 0.059 |
| YMVSRAIRDGVIEAKIN [RPN3] | 3.28 ± 0.17 |
| YNLLVKISLHKREYLEV [RPN5] | 1.21 ± 0.12 |
| YPDFRHYGLAVDIYTHF [DIS3] | 2.32 ± 0.041 |
| YPDLCSIYDKWTDPNLK [RPN1] | 2.66 ± 0.072 |
| YPDLQPFVLAENMWPFS [CDC53] | 2.09 ± 0.044 |
| YPESISNELIEHFSHFG [YDL088C/ASM4] | 3.02 ± 0.048 |
| YPIYELLMSCPRLSHLS [GRR1] | 1.4 ± 0.048 |
| YPNEVLKFNHGNYSHLM [REC8] | 2.65 ± 0.059 |
| YQEDIFVSESPSFVKSG [ISW2] | 2.47 ± 0.077 |
| YQELAYRATSLDPSLRA [YML031W/NDC1] | 2.89 ± 0.041 |
| YQGVYSMGSILLSFVLG [YML031W/NDC1] | 2.14 ± 0.11 |
| YQKEYETAERNIIQAKR [RPL7A] | 2.75 ± 0.14 |
| YQMHIKTSKDIAVLRSK [FAS1] | 2.14 ± 0.062 |
| YQRPMQVQGQQQAQSFV [SSN3] | 2.71 ± 0.045 |

| Sequence | protein stability index |
| --- | --- |
| YRCFAQLELRQLNASIS [RRI2] | 3.24 ± 0.2 |
| YRLDIIESALKSKLDQD [RPN2] | 1.96 ± 0.12 |
| YRNFMVNSYRLNPNEYF [SWI3] | 1.45 ± 0.058 |
| YRRALQSSESFDDSDIT [YML103C/NUP188] | 2.36 ± 0.059 |
| YRVTLESILQMNQGEGE [RPC34] | 3.16 ± 0.092 |
| YSALNSTYLPKLISAFD [RRP42] | 2.41 ± 0.06 |
| YSKDAKEIYYTPDPSEL [FAS2] | 2.81 ± 0.028 |
| YSKIKHLGLDDPQDVFN [SIR2] | 3.22 ± 0.19 |
| YSSYIYKVLKQTHPDTG [HTB1] | 2.05 ± 0.051 |
| YTANTSAQSIASAKSVR [YAR002W/NUP60] | 2.93 ± 0.11 |
| YTKETYQSRGIDAMKAV [RPN6] | 2.86 ± 0.072 |
| YTLTEEGVEYLREYLNL [RPS10A] | 3.37 ± 0.095 |
| YTREFVEAIRRSNQYQR [NUT2] | 2.18 ± 0.05 |
| YVESDEDDTQIVTGNLV [IRR1] | 3.47 ± 0.12 |
| YVFNARPDGVHVINVGK [RPS0A] | 2.78 ± 0.24 |
| YVIHGIELLSDLINILE [LIN1] | 2.74 ± 0.25 |
| YVISLSYTDAQDKSKKI [YMR129W/POM152] | 2.95 ± 0.082 |
| YVKEKLEAVNSMIEKGG [RPN7] | 2.98 ± 0.1 |
| YVNDVAIYNNPTRIRTK [RRI2] | 2.54 ± 0.032 |
| YVYRASKEVRGSKIRVM [RPL33A] | 2.81 ± 0.086 |
| YWQYKAGIPIGLKRSQL [SWP82] | 1.57 ± 0.081 |
| YYAKKRAFTKKVSSASA [RPL16B] | 1.71 ± 0.048 |
| YYDRKEELKNMFLYILK [RRI2] | 1.95 ± 0.13 |
| YYNEEGIHILLYSGLII [RPC82] | 2.04 ± 0.094 |
| YYNPQAGTKITICIELK [RGR1] | 2.24 ± 0.23 |

From the supplement of paper PMC9732359
